Target: JMJD6 full-length;BRD4 ET domain (human?;human, UniProt Q6NYC1;O60885 1-403;601-683, |)
Assay: thermal shift (DSF); with BRD4 ET; Tm […] C (+[…] C vs JMJD6/ssRNA); DSF: PBS pH 7.4, 1 uM JMJD6, 1 uM oligonucleotide, ET 1-100 uM, SYPRO Orange, 25-95 C at 1 C/min

## AUACGAUGCUUUACGGUGCUAUUUUGU (ssRNA) [ssRNA 27-nt]
  binding result: binds

Reference: article PMC5701133
